# Measured values published in US20230357348A1 (AstraZeneca / MedImmune, published 2023).
# Starred links: 1 amine or outer side, 2 acyl side, 3 side chain; linkers in the order of their positions; H or OH if unused. Non-standard residues stand in square brackets, D forms with d. Groups on a side chain read outwards from the residue. Primed or numbered codes have the meaning given here. No end group written: not given here. *: point of attachment. C20 diacid = O=C(O)CCCCCCCCCCCCCCCCCCC(=O)*; C18 diacid = O=C(O)CCCCCCCCCCCCCCCCC(=O)*; γGlu = O=C(O)[C@H](CCC(=O)[*:2])N[*:1]; Stearoyl = CCCCCCCCCCCCCCCCCC(=O)*; Palmitoyl = CCCCCCCCCCCCCCCC(=O)*; αMeF = C[C@](N)(Cc1ccccc1)C(=O)O; Myristoyl = CCCCCCCCCCCCCC(=O)*; PEG2′ = polyethylene glycol 2; AEEA = NCCOCCOCC(=O)O; Aib = CC(C)(N)C(=O)O
# Key:
# [1] = biological target: human GLP-1 receptor (hGLP-1R) (human, UniProt P43220 24-463); test: cell-based or functional assay
# [2] = biological target: human glucagon receptor (hGCGR) (human, UniProt P47871 26-477); test: cell-based or functional assay
# Sequence of human glucagon receptor (hGCGR) (P47871 26-477): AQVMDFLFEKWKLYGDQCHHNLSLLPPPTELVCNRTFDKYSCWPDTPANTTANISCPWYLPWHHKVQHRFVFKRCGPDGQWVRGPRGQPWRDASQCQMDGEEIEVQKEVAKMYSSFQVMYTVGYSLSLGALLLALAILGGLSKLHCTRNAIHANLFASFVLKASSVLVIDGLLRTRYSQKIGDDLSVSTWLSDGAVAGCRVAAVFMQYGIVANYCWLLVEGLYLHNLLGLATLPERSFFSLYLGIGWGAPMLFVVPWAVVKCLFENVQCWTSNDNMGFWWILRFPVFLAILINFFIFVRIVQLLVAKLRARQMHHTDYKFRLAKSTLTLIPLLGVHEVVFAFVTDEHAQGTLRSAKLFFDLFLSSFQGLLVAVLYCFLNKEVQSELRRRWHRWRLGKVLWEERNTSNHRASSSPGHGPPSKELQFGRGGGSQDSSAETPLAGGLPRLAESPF
Binder,hGLP-1R EC50 (pM) [1] [pM],hGluc-R EC50 (pM) [2] [pM]
H[Aib]HGS[αMeF]TSDVSK[αMeF]LDSK([AEEA-AEEA-γGlu-γGlu-C20 diacid])AARD[αMeF]VQ[Aib]IANT-NH2 (N-terminus assumed; SMILES CC[C@H](C)[C@H](NC(=O)C(C)(C)NC(=O)[C@H](CCC(N)=O)NC(=O)[C@@H](NC(=O)[C@](C)(Cc1ccccc1)NC(=O)[C@H](CC(=O)O)NC(=O)[C@H](CCCNC(=N)N)NC(=O)[C@H](C)NC(=O)[C@H](C)NC(=O)[C@H](CCCCNC(=O)COCCOCCNC(=O)COCCOCCNC(=O)CC[C@H](NC(=O)CC[C@H](NC(=O)CCCCCCCCCCCCCCCCCCC(=O)O)C(=O)O)C(=O)O)NC(=O)[C@H](CO)NC(=O)[C@H](CC(=O)O)NC(=O)[C@H](CC(C)C)NC(=O)[C@](C)(Cc1ccccc1)NC(=O)[C@H](CCCCN)NC(=O)[C@H](CO)NC(=O)[C@@H](NC(=O)[C@H](CC(=O)O)NC(=O)[C@H](CO)NC(=O)[C@@H](NC(=O)[C@](C)(Cc1ccccc1)NC(=O)[C@H](CO)NC(=O)CNC(=O)[C@H](Cc1c[nH]cn1)NC(=O)C(C)(C)NC(=O)[C@@H](N)Cc1c[nH]cn1)[C@@H](C)O)C(C)C)C(C)C)C(=O)N[C@@H](C)C(=O)N[C@@H](CC(N)=O)C(=O)N[C@H](C(N)=O)[C@@H](C)O) [Peptide 14],93.8,462
H[Aib]QGS[αMeF]TSDVSKILDSK([PEG2′-PEG2′-γGlu-γGlu-Palmitoyl])AAQD[αMeF]VQ[Aib]IINT-NH2 [Peptide 125],0.575,6.68
HSQGS[αMeF]TSDVSK[Aib]LDSK([AEEA-AEEA-γGlu-C18 diacid])AAQD[αMeF]VQ[Aib]IAN-NH2 (N-terminus assumed; SMILES CC[C@H](C)[C@H](NC(=O)C(C)(C)NC(=O)[C@H](CCC(N)=O)NC(=O)[C@@H](NC(=O)[C@](C)(Cc1ccccc1)NC(=O)[C@H](CC(=O)O)NC(=O)[C@H](CCC(N)=O)NC(=O)[C@H](C)NC(=O)[C@H](C)NC(=O)[C@H](CCCCNC(=O)COCCOCCNC(=O)COCCOCCNC(=O)CC[C@H](NC(=O)CCCCCCCCCCCCCCCCC(=O)O)C(=O)O)NC(=O)[C@H](CO)NC(=O)[C@H](CC(=O)O)NC(=O)[C@H](CC(C)C)NC(=O)C(C)(C)NC(=O)[C@H](CCCCN)NC(=O)[C@H](CO)NC(=O)[C@@H](NC(=O)[C@H](CC(=O)O)NC(=O)[C@H](CO)NC(=O)[C@@H](NC(=O)[C@](C)(Cc1ccccc1)NC(=O)[C@H](CO)NC(=O)CNC(=O)[C@H](CCC(N)=O)NC(=O)[C@H](CO)NC(=O)[C@@H](N)Cc1c[nH]cn1)[C@@H](C)O)C(C)C)C(C)C)C(=O)N[C@@H](C)C(=O)N[C@@H](CC(N)=O)C(N)=O) [Peptide 1],3200,> 27100
H[Aib]HGS[αMeF]TSDVSK[αMeF]LDSK([AEEA-AEEA-γGlu-C18 diacid])AARD[αMeF]IA[Aib]IANT-NH2 (N-terminus assumed; SMILES CC[C@H](C)[C@H](NC(=O)C(C)(C)NC(=O)[C@H](C)NC(=O)[C@@H](NC(=O)[C@](C)(Cc1ccccc1)NC(=O)[C@H](CC(=O)O)NC(=O)[C@H](CCCNC(=N)N)NC(=O)[C@H](C)NC(=O)[C@H](C)NC(=O)[C@H](CCCCNC(=O)COCCOCCNC(=O)COCCOCCNC(=O)CC[C@H](NC(=O)CCCCCCCCCCCCCCCCC(=O)O)C(=O)O)NC(=O)[C@H](CO)NC(=O)[C@H](CC(=O)O)NC(=O)[C@H](CC(C)C)NC(=O)[C@](C)(Cc1ccccc1)NC(=O)[C@H](CCCCN)NC(=O)[C@H](CO)NC(=O)[C@@H](NC(=O)[C@H](CC(=O)O)NC(=O)[C@H](CO)NC(=O)[C@@H](NC(=O)[C@](C)(Cc1ccccc1)NC(=O)[C@H](CO)NC(=O)CNC(=O)[C@H](Cc1c[nH]cn1)NC(=O)C(C)(C)NC(=O)[C@@H](N)Cc1c[nH]cn1)[C@@H](C)O)C(C)C)[C@@H](C)CC)C(=O)N[C@@H](C)C(=O)N[C@@H](CC(N)=O)C(=O)N[C@H](C(N)=O)[C@@H](C)O) [Peptide 16],33,105
H[Aib]HGS[αMeF]TSDVSK[αMeF]LDSK([AEEA-AEEA-γGlu-C18 diacid])AARD[αMeF]VESIANT-NH2 (N-terminus assumed; SMILES CC[C@H](C)[C@H](NC(=O)[C@H](CO)NC(=O)[C@H](CCC(=O)O)NC(=O)[C@@H](NC(=O)[C@](C)(Cc1ccccc1)NC(=O)[C@H](CC(=O)O)NC(=O)[C@H](CCCNC(=N)N)NC(=O)[C@H](C)NC(=O)[C@H](C)NC(=O)[C@H](CCCCNC(=O)COCCOCCNC(=O)COCCOCCNC(=O)CC[C@H](NC(=O)CCCCCCCCCCCCCCCCC(=O)O)C(=O)O)NC(=O)[C@H](CO)NC(=O)[C@H](CC(=O)O)NC(=O)[C@H](CC(C)C)NC(=O)[C@](C)(Cc1ccccc1)NC(=O)[C@H](CCCCN)NC(=O)[C@H](CO)NC(=O)[C@@H](NC(=O)[C@H](CC(=O)O)NC(=O)[C@H](CO)NC(=O)[C@@H](NC(=O)[C@](C)(Cc1ccccc1)NC(=O)[C@H](CO)NC(=O)CNC(=O)[C@H](Cc1c[nH]cn1)NC(=O)C(C)(C)NC(=O)[C@@H](N)Cc1c[nH]cn1)[C@@H](C)O)C(C)C)C(C)C)C(=O)N[C@@H](C)C(=O)N[C@@H](CC(N)=O)C(=O)N[C@H](C(N)=O)[C@@H](C)O) [Peptide 17],45,135
H[Aib]HGS[αMeF]TSDVSK[αMeF]LDSK([AEEA-AEEA-γGlu-C18 diacid])AARD[αMeF]VE[Aib]IANT-NH2 (N-terminus assumed; SMILES CC[C@H](C)[C@H](NC(=O)C(C)(C)NC(=O)[C@H](CCC(=O)O)NC(=O)[C@@H](NC(=O)[C@](C)(Cc1ccccc1)NC(=O)[C@H](CC(=O)O)NC(=O)[C@H](CCCNC(=N)N)NC(=O)[C@H](C)NC(=O)[C@H](C)NC(=O)[C@H](CCCCNC(=O)COCCOCCNC(=O)COCCOCCNC(=O)CC[C@H](NC(=O)CCCCCCCCCCCCCCCCC(=O)O)C(=O)O)NC(=O)[C@H](CO)NC(=O)[C@H](CC(=O)O)NC(=O)[C@H](CC(C)C)NC(=O)[C@](C)(Cc1ccccc1)NC(=O)[C@H](CCCCN)NC(=O)[C@H](CO)NC(=O)[C@@H](NC(=O)[C@H](CC(=O)O)NC(=O)[C@H](CO)NC(=O)[C@@H](NC(=O)[C@](C)(Cc1ccccc1)NC(=O)[C@H](CO)NC(=O)CNC(=O)[C@H](Cc1c[nH]cn1)NC(=O)C(C)(C)NC(=O)[C@@H](N)Cc1c[nH]cn1)[C@@H](C)O)C(C)C)C(C)C)C(=O)N[C@@H](C)C(=O)N[C@@H](CC(N)=O)C(=O)N[C@H](C(N)=O)[C@@H](C)O) [Peptide 15],33.1,61.4

# The next lines start with the values.
hGLP-1R EC50 (pM) [1] [pM],hGluc-R EC50 (pM) [2] [pM],Binder
0.788,4.7,H[Aib]QGS[αMeF]TSDVSKILDSK([PEG2′-PEG2′-γGlu-Palmitoyl])AAQD[αMeF]VQ[Aib]IINT-NH2 [Peptide 128]
0.462,4.1,H[Aib]QGS[αMeF]TSDVSKILDSK([PEG2′-PEG2′-γGlu-Myristoyl])AAQD[αMeF]VQ[Aib]IINT-NH2 [Peptide 129]
0.998,12.6,H[Aib]QGS[αMeF]TSDVSKILDSK([PEG2′-PEG2′-γGlu-Stearoyl])AAQD[αMeF]VQ[Aib]IINT-NH2 [Peptide 127]
